# Laboratory results as given in paper PMC11379886, “Insights into phosphoethanolamine cellulose synthesis and secretion across the Gram-negative cell envelope” (Nature Communications, 2024).
# T1: Escherichia coli BcsB (residues 55–779), as it stands in the BcsB-BcsC fusion (Escherichia coli, UniProt P37652 55-779)
# T1 construct: E. coli BcsB, residues 55-779; Joined on one chain with Strep-tag II, BcsC 21-179 and a GSGSGS linker at its N-terminus (molecule m11); written apart for the BcsB-BcsC pair of the structure; source: E. coli C43, as part of the BcsB-BcsC fusion chain, co-purified with the Bcs complex
# T1 sequence (looked up): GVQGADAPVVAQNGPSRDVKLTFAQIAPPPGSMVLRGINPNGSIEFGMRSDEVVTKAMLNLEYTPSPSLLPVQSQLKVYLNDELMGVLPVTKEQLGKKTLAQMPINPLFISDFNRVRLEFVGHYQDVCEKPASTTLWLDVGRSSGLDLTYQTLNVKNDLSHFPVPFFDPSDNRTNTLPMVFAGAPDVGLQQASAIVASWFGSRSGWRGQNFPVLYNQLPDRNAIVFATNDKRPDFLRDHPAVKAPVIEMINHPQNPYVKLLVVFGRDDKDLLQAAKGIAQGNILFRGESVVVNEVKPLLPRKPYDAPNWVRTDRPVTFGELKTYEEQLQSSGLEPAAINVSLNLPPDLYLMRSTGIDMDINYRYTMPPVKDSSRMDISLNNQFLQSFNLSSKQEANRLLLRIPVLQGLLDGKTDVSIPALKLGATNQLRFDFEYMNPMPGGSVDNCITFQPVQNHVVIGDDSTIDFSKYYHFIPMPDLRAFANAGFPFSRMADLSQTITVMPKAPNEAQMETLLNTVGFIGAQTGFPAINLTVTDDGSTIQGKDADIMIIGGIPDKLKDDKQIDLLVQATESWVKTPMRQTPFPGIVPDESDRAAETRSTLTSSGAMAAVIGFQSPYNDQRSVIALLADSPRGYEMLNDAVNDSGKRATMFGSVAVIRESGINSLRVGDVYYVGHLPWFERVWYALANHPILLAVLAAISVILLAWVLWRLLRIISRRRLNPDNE
# B1: Escherichia coli BcsB (natural protein)
# chain: TPATQPLINAEPAVAAQTEQNPQVGQVMPGVQGADAPVVAQNGPSRDVKLTFAQIAPPPGSMVLRGINPNGSIEFGMRSDEVVTKAMLNLEYTPSPSLLPVQSQLKVYLNDELMGVLPVTKEQLGKKTLAQMPINPLFISDFNRVRLEFVGHYQDVCEKPASTTLWLDVGRSSGLDLTYQTLNVKNDLSHFPVPFFDPSDNRTNTLPMVFAGAPDVGLQQASAIVASWFGSRSGWRGQNFPVLYNQLPDRNAIVFATNDKRPDFLRDHPAVKAPVIEMINHPQNPYVKLLVVFGRDDKDLLQAAKGIAQGNILFRGESVVVNEVKPLLPRKPYDAPNWVRTDRPVTFGELKTYEEQLQSSGLEPAAINVSLNLPPDLYLMRSTGIDMDINYRYTMPPVKDSSRMDISLNNQFLQSFNLSSKQEANRLLLRIPVLQGLLDGKTDVSIPALKLGATNQLRFDFEYMNPMPGGSVDNCITFQPVQNHVVIGDDSTIDFSKYYHFIPMPDLRAFANAGFPFSRMADLSQTITVMPKAPNEAQMETLLNTVGFIGAQTGFPAINLTVTDDGSTIQGKDADIMIIGGIPDKLKDDKQIDLLVQATESWVKTPMRQTPFPGIVPDESDRAAETRSTLTSSGAMAAVIGFQSPYNDQRSVIALLADSPRGYEMLNDAVNDSGKRATMFGSVAVIRESGINSLRVGDVYYVGHLPWFERVWYALANHPILLAVLAAISVILLAWVLWRLLRIISRRRLNPDNE
# notes: BcsB, periplasmic inner-membrane-anchored subunit of the E. coli cellulose synthase complex; In the BcsB-BcsC fusion made from the same plasmid the BcsB part is residues 55-779; also called Ec BcsB; not shown: Strep-tag II, N-terminal, kept
# Columns and labels:
# [1] = biological target: B1; assay: cryo-EM structure; purified Ec Bcs inner membrane complex in MSP2N2 nanodiscs incubated with the separately purified periplasmic domain of BcsC (TPR#1-18) at a molar ratio of 1:5 for 1 h on ice; low-resolution map; details: both partners purified
# [2] = biological target: the molecule itself; assay: as above
# [3] = biological target: the molecule itself; assay: cryo-EM structure; reprocessing of the previously published cryo-EM data (EMD-23267) of the co-expressed, co-purified Ec inner membrane-associated Bcs complex, focused on BcsA-BcsG; ~5.7 Å; AlphaFold2 model docked as rigid bodies
# [4] = biological target: the molecule itself; assay: cryo-EM structure; BcsC TPR#1-4 fused to the N-terminus of BcsB, co-expressed with all other Bcs components, purified in detergent, about 2.2 mg/mL; focused refinement of a tetrameric BcsB assembly, about 3.2 Å
# [5] = biological target: the molecule itself; assay: cryo-EM structure; BcsC incubated with purified BcsZ at a molar 1:1.5; single particle analysis, about 2.7 Å for BcsZ
# [6] = biological target: T1, Escherichia coli BcsB (residues …); assay: cryo-EM structure; BcsC TPR#1-4 fused to the N-terminus of BcsB, co-expressed with all other Bcs components, purified in detergent, about 2.2 mg/mL; focused refinement of a tetrameric BcsB assembly, about 3.2 Å; details: both partners purified
binder,measurement,setting,value
"periplasmic domain of Escherichia coli BcsC (TPR#1–18; residues 24–709) (domain or fragment, UniProt P37650 24-709, looked up, BcsC periplasmic domain, TPR#1-18, residues 24-709, cloned into pET20b; also called BcsC's periplasmic domain; N-terminal 18 TPRs of BcsC; source: E. coli Rosetta 2, periplasmic extract, purified (Ni-NTA, SEC)) APTAQQQLLEQVRLGEATHREDLVQQSLYRLELIDPNNPDVVAARFRSLLRQGDIDGAQKQLDRLSQLAPSSNAYKSSRTTMLLSTPDGRQALQQARLQATTGHAEEAVASYNKLFNGAPPEGDIAVEYWSTVAKIPARRGEAINQLKRINADAPGNTGLQNNLALLLFSSDRRDEGFAVLEQMAKSNAGREGASKIWYGQIKDMPVSDASVSALKKYLSIFSDGDSVAAAQSQLAEQQKQLADPAFRARAQGLAAVDSGMAGKAIPELQQAVRANPKDSEALGALGQAYSQKGDRANAVANLEKALALDPHSSNNDKWNSLLKVNRYWLAIQQGDAALKANNPDRAERLFQQARNVDNTDSYAVLGLGDVAMARKDYPAAERYYQQTLRMDSGNTNAVRGLANIYRQQSPEKAEAFIASLSASQRRSIDDIERSLQNDRLAQQAEALENQGKWAQAAALQRQRLALDPGSVWITYRLSQDLWQAGQRSQADTLMRNLAQQKSNDPEQVYAYGLYLSGHDQDRAALAHINSLPRAQWNSNIQELVNRLQSDQVLETANRLRESGKEAEAEAMLRQQPPSTRIDLTLADWAQQRRDYTAARAAYQNVLTREPANADAILGLTEVDIAAGDKAAARSQLAKLPATDNASLNTQRRVALAQAQLGDTAAAQRTFNKLIPQAKSQPPSME",binding result,[1],binds
B1,stoichiometry N,[2],6
"Escherichia coli pEtN transferase BcsG, FLAG-tagged (enzyme, UniProt P37659 1-559, looked up, present as the full-length enzyme in the analysed sample; End of the FLAG tag read from the plasmid's name (G-FLAG); also called Ec BcsG; source: E. coli C43 (DE3), co-expressed with the other Bcs components or with the BcsA chimera, Rs BcsB and BcsF; co-purified; not shown: FLAG, C-terminal, kept) MTQFTQNTAMPSSLWQYWRGLSGWNFYFLVKFGLLWAGYLNFHPLLNLVFAAFLLMPLPRYSLHRLRHWIALPIGFALFWHDTWLPGPESIMSQGSQVAGFSTDYLIDLVTRFINWQMIGAIFVLLVAWLFLSQWIRITVFVVAILLWLNVLTLAGPSFSLWPAGQPTTTVTTTGGNAAATVAATGGAPVVGDMPAQTAPPTTANLNAWLNNFYNAEAKRKSTFPSSLPADAQPFELLVINICSLSWSDIEAAGLMSHPLWSHFDIEFKNFNSATSYSGPAAIRLLRASCGQTSHTNLYQPANNDCYLFDNLSKLGFTQHLMMGHNGQFGGFLKEVRENGGMQSELMDQTNLPVILLGFDGSPVYDDTAVLNRWLDVTEKDKNSRSATFYNTLPLHDGNHYPGVSKTADYKARAQKFFDELDAFFTELEKSGRKVMVVVVPEHGGALKGDRMQVSGLRDIPSPSITDVPVGVKFFGMKAPHQGAPIVIEQPSSFLAISDLVVRVLDGKIFTEDNVDWKKLTSGLPQTAPVSENSNAVVIQYQDKPYVRLNGGDWVPYPQ",stoichiometry N,[3],3
"BcsB-BcsC fusion: BcsC TPR#1–4 fused to the N-terminus of Escherichia coli BcsB (other, N-terminal four TPRs of E. coli BcsC (TPR#1-4), residues 21-179; linker; E. coli BcsB, residues 55-779; The best map came from a tetrameric BcsB assembly; a fully assembled complex was also seen; also called nSS-Strep-TPR(#1-4)-(GS)3-B; engineered BcsB-BcsC fusion; source: E. coli C43, co-expressed with all other Bcs components, co-purified (Ni-NTA, Strep-Tactin, SEC), in detergent; not shown: …) VEAAPTAQQQLLEQVRLGEATHREDLVQQSLYRLELIDPNNPDVVAARFRSLLRQGDIDGAQKQLDRLSQLAPSSNAYKSSRTTMLLSTPDGRQALQQARLQATTGHAEEAVASYNKLFNGAPPEGDIAVEYWSTVAKIPARRGEAINQLKRINADAPGGSGSGSGVQGADAPVVAQNGPSRDVKLTFAQIAPPPGSMVLRGINPNGSIEFGMRSDEVVTKAMLNLEYTPSPSLLPVQSQLKVYLNDELMGVLPVTKEQLGKKTLAQMPINPLFISDFNRVRLEFVGHYQDVCEKPASTTLWLDVGRSSGLDLTYQTLNVKNDLSHFPVPFFDPSDNRTNTLPMVFAGAPDVGLQQASAIVASWFGSRSGWRGQNFPVLYNQLPDRNAIVFATNDKRPDFLRDHPAVKAPVIEMINHPQNPYVKLLVVFGRDDKDLLQAAKGIAQGNILFRGESVVVNEVKPLLPRKPYDAPNWVRTDRPVTFGELKTYEEQLQSSGLEPAAINVSLNLPPDLYLMRSTGIDMDINYRYTMPPVKDSSRMDISLNNQFLQSFNLSSKQEANRLLLRIPVLQGLLDGKTDVSIPALKLGATNQLRFDFEYMNPMPGGSVDNCITFQPVQNHVVIGDDSTIDFSKYYHFIPMPDLRAFANAGFPFSRMADLSQTITVMPKAPNEAQMETLLNTVGFIGAQTGFPAINLTVTDDGSTIQGKDADIMIIGGIPDKLKDDKQIDLLVQATESWVKTPMRQTPFPGIVPDESDRAAETRSTLTSSGAMAAVIGFQSPYNDQRSVIALLADSPRGYEMLNDAVNDSGKRATMFGSVAVIRESGINSLRVGDVYYVGHLPWFERVWYALANHPILLAVLAAISVILLAWVLWRLLRIISRRRLNPDNE",stoichiometry N,[4],4
"Escherichia coli cellulase BcsZ (enzyme, End of the His tag read from the plasmid's name; also called Ec BcsZ) ACTWPAWEQFKKDYISQEGRVIDPSDARKITTSEGQSYGMFSALAANDRAAFDNILDWTQNNLAQGSLKERLPAWLWGKKENSKWEVLDSNSASDGDVWMAWSLLEAGRLWKEQRYTDIGSALLKRIAREEVVTVPGLGSMLLPGKVGFAEDNSWRFNPSYLPPTLAQYFTRFGAPWTTLRETNQRLLLETAPKGFSPDWVRYEKDKGWQLKAEKTLISSYDAIRVYMWVGMMPDSDPQKARMLNRFKPMATFTEKNGYPPEKVDVATGKAQGKGPVGFSAAMLPFLQNRDAQAVQRQRVADNFPGSDAYYNYVLTLFGQGWDQHRFRFSTKGELLPDWGQECANSH",stoichiometry N,[5],4
"Escherichia coli BcsC TPR#1–4 (residues 21–179), as it stands in the BcsB-BcsC fusion (domain or fragment, UniProt P37650 21-179, looked up, N-terminal four TPRs of E. coli BcsC (TPR#1-4), residues 21-179; Joined on one chain with BcsB 55-779 through a GSGSGS linker (molecule m11); written apart for the BcsB-BcsC pair of the structure; also called BcsC's TPRs#1–4; BcsC N-terminal TPRs; source: E. coli C43, as part of the BcsB-BcsC fusion chain, co-purified with the Bcs complex; not shown: Strep-tag II, N-terminal, kept) VEAAPTAQQQLLEQVRLGEATHREDLVQQSLYRLELIDPNNPDVVAARFRSLLRQGDIDGAQKQLDRLSQLAPSSNAYKSSRTTMLLSTPDGRQALQQARLQATTGHAEEAVASYNKLFNGAPPEGDIAVEYWSTVAKIPARRGEAINQLKRINADAPG",binding result,[6],binds
